Earlier results as cited in article PMC12525728, “Safety, Pharmacokinetics, Translational and Molecular Mechanistic Insights on the Prostate Cancer Recurrence Suppressor Pseurotin A” (Molecules, 2025).
Like-named read-outs stand apart in the source and are kept apart here.

Design: method as in PMID 39441027
Conditions: cited from earlier work; for relative % reduction for LDL-C: propensity score matching analysis

B1: evolocumab (antibody, chains of the INN, looked up, V domains shown)
VH: EVQLVQSGAEVKKPGASVKVSCKASGYTLTSYGISWVRQAPGQGLEWMGWVSFYNGNTNYAQKLQGRGTMTTDPSTSTAYMELRSLRSDDTAVYYCARGYGMDVWGQGTTVTVSS
VL: ESALTQPASVSGSPGQSITISCTGTSSDVGGYNSVSWYQQHPGKAPKLMIYEVSNRPSGVSNRFSGSKSGNTASLTISGLQAEDEADYYCNSYTSTSMVFGGGTKLTVL
notes: FDA-approved marketed humanized monoclonal antibody that interferes with the PCSK9-LDLR PPI
In the case of B1, the total cholesterol reduction (clinical trials, after 8 dosing weeks) is given as −26.5%, the “relative % reduction for LDL-C” value (females) is given as −42.7% and the “relative % reduction for LDL-C” value (males) is given as −54.4%.
